{"source": "paper PMC4823995", "biological_target": "Mcm6-SuOn (budding yeast) (UniProt Q02724)", "assay": "co-IP"}
{"substance": "Glc7 phosphatase (PP1) (from UniProt P32598 1-312) (enzyme)", "values": [{"measurement": "fold enrichment of Glc7 in the immunoprecipitate against Mcm6-ctrl", "value": 2, "unit": "fold"}]}
